Test results from publication PMC6599047, “Optimal composition and position of histidine-containing tags improves biodistribution of ^99mTc-labeled DARPin G3” (Scientific Reports, 2019).

Molecular target: T1, human epidermal growth factor receptor (HER2) (human (endogenous in SKOV3, BT474, …, UniProt P04626 23-1255))
T1 construct: HER2, endogenous on the human cancer cell lines SKOV3, BT474 (high expression) and DU145 (low expression); source: endogenous, on living SKOV3, BT474 and DU145 cells
Experiment: radioligand binding; LigandTracer, real time, living SKOV3 cells, room temperature; 0.5 and 2 nM radiolabeled G3 variant, then medium replaced for dissociation; fitted to a one-to-two Langmuir binding model (TraceDrawer); duplicates
Details: one partner purified

B1: [99mTc]Tc(CO)3-H6-G3 (DARPin G3 with a hexahistidine tag at the N-terminus) (designed binder)
chain: MRGSHHHHHHGSDLGKKLLEAARAGQDDEVRILMANGADVNAKDEYGLTPLYLATAHGHLEIVEVLLKNGADVNAVDAIGFTPLHLAAFIGHLEIAEVLLKHGADVNAQDKFGKTAFDISIGNGNEDLAEILQKLN
modifications: [99mTc]Tc(CO)3 on the histidine-containing tag (site-specific radiolabel)
notes: whole chain as printed; source: E. coli BL21(DE3), purified (HisTrap HP, MonoQ); not shown: His6, N-terminal, kept
Question: For B1, which “KD1 (high affinity interaction of the one-to-two fit)” value (“KD1” for short) is on record?
Answer: 90 ± 5 pM

Question: What about the “KD2 (low affinity interaction of the one-to-two fit)” value (“KD2” for short) of the same binder?
Answer: 3.3 ± 0.2 nM

B2: [99mTc]Tc(CO)3-(HE)3-G3 (DARPin G3 with a HEHEHE tag at the N-terminus) (designed binder)
chain: MRGSHEHEHEGSDLGKKLLEAARAGQDDEVRILMANGADVNAKDEYGLTPLYLATAHGHLEIVEVLLKNGADVNAVDAIGFTPLHLAAFIGHLEIAEVLLKHGADVNAQDKFGKTAFDISIGNGNEDLAEILQKLN
modifications: [99mTc]Tc(CO)3 on the histidine-containing tag (site-specific radiolabel)
notes: whole chain as printed; source: E. coli BL21(DE3), purified (HisTrap HP without imidazole in lysate and wash, MonoQ); not shown: (HE)3 (HEHEHE), N-terminal, kept
Question: B2 was tested. Which “KD1” value did it give?
Answer: 96 ± 3 pM

Question: And the “KD2” value?
Answer: 1.2 ± 0.1 nM

B3: [99mTc]Tc(CO)3-G3-H6 (DARPin G3 with a hexahistidine tag at the C-terminus) (designed binder)
chain: MDLGKKLLEAARAGQDDEVRILMANGADVNAKDEYGLTPLYLATAHGHLEIVEVLLKNGADVNAVDAIGFTPLHLAAFIGHLEIAEVLLKHGADVNAQDKFGKTAFDISIGNGNEDLAEILQKLNGSHHHHHH
modifications: [99mTc]Tc(CO)3 on the histidine-containing tag (site-specific radiolabel)
notes: whole chain as printed; source: E. coli BL21(DE3), purified (HisTrap HP, MonoQ); not shown: His6, C-terminal, kept
Question: Which “KD1” value does the source give for B3 here?
Answer: 118 ± 38 pM

Question: What about the “KD2” value of the same binder?
Answer: 2.5 ± 1.5 nM

B4: [99mTc]Tc(CO)3-G3-(HE)3 (DARPin G3 with a HEHEHE tag at the C-terminus) (designed binder)
chain: DLGKKLLEAARAGQDDEVRILMANGADVNAKDEYGLTPLYLATAHGHLEIVEVLLKNGADVNAVDAIGFTPLHLAAFIGHLEIAEVLLKHGADVNAQDKFGKTAFDISIGNGNEDLAEILQKLNGSHEHEHE
modifications: [99mTc]Tc(CO)3 on the histidine-containing tag (site-specific radiolabel)
notes: whole chain as printed (after removal of SUMO at QIGG/DLGKK); source: E. coli BL21(DE3), made as a His6-SUMO fusion, purified (HisTrap HP, cut with ULP1, HisTrap flow-through, MonoQ); not shown: (HE)3 (HEHEHE), C-terminal, kept
Question: For B4, which “KD1” value is on record?
Answer: 89 ± 11 pM

Question: And the “KD2” value?
Answer: 1.8 ± 0.5 nM
